In experiment [1] the target is T1, rat MAG-Fc fusion protein (R&D Systems; 538-MG) (rat; human, UniProt P07722 20-516, limits assumed).
T1 construct: Bought reagent coated on ELISA plates; not shown: human Fc
T1 sequence (looked up): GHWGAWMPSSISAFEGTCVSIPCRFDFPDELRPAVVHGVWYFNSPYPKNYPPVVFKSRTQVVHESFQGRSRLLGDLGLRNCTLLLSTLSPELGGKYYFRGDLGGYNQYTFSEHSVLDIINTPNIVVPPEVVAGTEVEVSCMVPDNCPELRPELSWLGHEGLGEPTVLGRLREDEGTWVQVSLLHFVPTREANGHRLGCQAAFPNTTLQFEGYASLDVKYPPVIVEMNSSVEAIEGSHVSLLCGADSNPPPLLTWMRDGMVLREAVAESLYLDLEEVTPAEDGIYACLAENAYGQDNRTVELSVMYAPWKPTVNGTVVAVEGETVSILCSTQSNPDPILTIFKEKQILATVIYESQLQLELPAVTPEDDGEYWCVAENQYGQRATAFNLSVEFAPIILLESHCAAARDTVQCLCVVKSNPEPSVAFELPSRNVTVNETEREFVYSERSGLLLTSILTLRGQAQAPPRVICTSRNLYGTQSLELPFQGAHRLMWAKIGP
Kind of experiment: ELISA on coated rat MAG-Fc, purified antibody. A general note: In an ELISA, binding on a coated surface is turned into a signal by an enzyme label.

Experiment [2] concerns the target T1, rat MAG-Fc fusion protein (R&D Systems; …). Briefly: ELISA on coated rat MAG-Fc; purified antibody serially diluted from 5000 ng/ml. The protocol:
96-well Nunc Maxisorp plates were coated overnight at 4° C. with rat MAG-Fc fusion protein (2.5 μg/ml; R&D Systems; Cat.No. 538-MG) in PBS. Plates were washed twice with PBS containing Tween20 (0.1% v/v; PBST) and blocked with PBS containing BSA (1% w/v) for 1 h at room temperature (RT). Purified humanised antibody was adjusted to a starting concentration of 5 μg/ml in blocking buffer and then serial diluted. Antibody samples were incubated 1 h at RT and plates then washed 3× with PBST. Secondary antibody (Goat anti-human light chain specific-peroxidase conjugate; Sigma A-7164) was added diluted 1/5000 in blocking buffer and incubated for 1 h at RT. Wells were washed three times as above and binding detected by adding substrate (OPD tablets dissolved according to instructions; Sigma P-9187). Colour development was monitored and the reaction stopped using 3M H₂SO₄ Colour development was read at 490 nm.

B1: humanised anti-MAG antibody BVh1/CVl1 (antibody, V domains shown)
VH: QVQLVQSGSELKKPGASVKVSCKASGYTFTNYGMNWVRQAPGQGLEWMGWINTYTGEPTYADDFTGRFVFSLDTSVSTAYLQISSLKAEDTAVYYCARNPINYYGINYEGYVMDYWGQGTLVTVSS
VL: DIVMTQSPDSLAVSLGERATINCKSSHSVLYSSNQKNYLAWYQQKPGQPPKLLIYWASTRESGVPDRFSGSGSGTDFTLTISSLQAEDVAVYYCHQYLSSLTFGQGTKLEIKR
notes: The purified material has a mutated human IgG1 constant region (Kabat residues 248 and 250 changed to alanine) and a human kappa light chain; The antibody was also tested as culture supernatant on human MAG, and the constant region is not restated there; also called BVh1/CVl1 mutated IgG1
For B1, the binding result in experiment [1] is given as “binds”.

B2: humanised anti-MAG antibody BVh3/CVl3 (antibody, human IgG1, V domains shown)
VH: QVQLVQSGSELKKPGASVKVSCKASGYTFTNYGMNWVRQAPGQGLEWMGWINTYTGEPTYADDFTGRFVFSLDTSVSTAYLQISSLKAEDTATYFCARNPINYYGINYEGYVMDYWGQGTLVTVSS
VL: DIVMTQSPDSLAVSLGERATINCKSSHSVLYSSNQKNYLAWYQQKPGQPPKLLIYWASTRESGVPDRFSGSGSGTDFTLTISSLHTEDVAVYYCHQYLSSLTFGQGTKLEIKR
notes: The antibody was also tested as culture supernatant on human MAG
Regarding B2, the binding result in experiment [2] is given as “binds”.

Source of the values: patent publication US20060165681A1 (GlaxoSmithKline, published 2006).
